Measurements published in patent US20250361274A1, “PEPTIDE AND PEPTIDE-CONTAINING AGENT” (PEPTIDREAM INC., priority 2022, published 2025).
Numbered stars: 1 amine (or outer) side, 2 acyl side, 3 side chain; on linkers, the order of the positions; unused ones are H or OH. Bridge positions count the residues as written; N and C are the ends. Square brackets hold non-standard residues; d marks the D form. Ends that are not written are not given here. Bph3OMe = (S)-2-amino-3-(3'-methoxy-[1,1'-biphenyl]-4-yl)propanoic acid, COc1cccc(-c2ccc(C[C@H](N[*:1])C(=O)[*:2])cc2)c1; KCOpipzaa = N6-(4-(carboxymethyl)piperazine-1-carbonyl)-L-lysine, O=C(NCCCC[C@H](N[*:1])C(=O)[*:2])N1CCN(CC(=O)[*:3])CC1; Bph3C = (S)-2-amino-3-(3'-chloro-[1,1'-biphenyl]-4-yl)propanoic acid, O=C([C@H](Cc1ccc(-c2cccc(Cl)c2)cc1)N[*:1])[*:2]; Phe(4-guanidino) = N=C(N)Nc1ccc(C[C@H](N)C(=O)O)cc1; 3Pal(6-Ph) = N[C@@H](Cc1ccc(-c2ccccc2)nc1)C(=O)O; Phe(4-COOH) = N[C@@H](Cc1ccc(C(=O)O)cc1)C(=O)O; NMePhe(4-Me) = CN[C@@H](Cc1ccc(C)cc1)C(=O)O; Bip = N[C@@H](Cc1ccc(-c2ccccc2)cc1)C(=O)O; Phe(4-F) = N[C@@H](Cc1ccc(F)cc1)C(=O)O; Hyp = O=C(O)[C@@H]1C[C@@H](O)CN1; NMeF = CN[C@@H](Cc1ccccc1)C(=O)O; 4Pal = N[C@@H](Cc1ccncc1)C(=O)O; Aad = N[C@@H](CCCC(=O)O)C(=O)O; Cha = N[C@@H](CC1CCCCC1)C(=O)O; Cit = NC(=O)NCCC[C@H](N)C(=O)O; Ahp(2) = CCCCC[C@H](N)C(=O)O; Abu = CC[C@H](N)C(=O)O; βAla = NCCC(=O)O

Legend:
BMP7 = biological target: T1, BMP7 (Homo sapiens, UniProt P18075); test: BMP7 signal transduction inhibitory activity: SMAD1 phosphorylation by BMP7 stimulus, A549 cells; type: cell-based; conditions: for aLISA BMP7: A549 cells; for aLIZA BMP7 (10 nM) % inh: class symbols
T1 sequence (P18075 293-431): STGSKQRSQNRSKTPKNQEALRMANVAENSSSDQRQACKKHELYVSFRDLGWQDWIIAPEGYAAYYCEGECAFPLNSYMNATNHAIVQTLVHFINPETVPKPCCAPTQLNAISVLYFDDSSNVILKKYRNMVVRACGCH
In short: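 Inhibition is read as reduced BMP7-driven SMAD1 phosphorylation in human A549 cells, with the BMP7 stimulus at 10 nM. Three-point peptide concentrations spanned 1–1,000 nM depending on the peptide series. Some peptides received eight-point, 1/3-ratio titrations from 100 nM or 1,000 nM, alongside a Noggin control.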

BMP4 = biological target: T2, BMP4 (Homo sapiens, UniProt P12644); test: BMP4 signal transduction inhibitory activity: SMAD1 phosphorylation by BMP4 stimulus, AlphaLISA SureFire, A549 cells; type: cell-based; conditions: for aLISA BMP4: A549 cells; for aLIZA BMP4 (0.2 nM) % inh: peptide conc. in assay 0.02, 0.2, 2 nM, class symbols
T2 sequence (P12644 293-408): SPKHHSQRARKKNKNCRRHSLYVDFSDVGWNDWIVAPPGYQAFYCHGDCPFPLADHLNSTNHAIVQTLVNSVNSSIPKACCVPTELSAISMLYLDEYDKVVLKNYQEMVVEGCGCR

[1] = inhibition of SMAD1 phosphorylation by BMP7 stimulus, AlphaLISA, class by peptide concentration zone
[2] = inhibition of SMAD1 phosphorylation by BMP4 stimulus, AlphaLISA, class by peptide concentration zone
[3] = SMAD1 phosphorylation, BMP7 10 nM, peptide conc. in assay 1, 10, 100 nM
[4] = SMAD1 phosphorylation, BMP4 0.2 nM, peptide conc. in assay 0.2, 2, 20 nM
[5] = BMP7 10 nM stimulus, peptide conc. in assay 100, 300, 1000 nM
[6] = BMP7 10 nM stimulus, peptide conc. in assay 1, 10, 100 nM
[7] = BMP4 0.2 nM stimulus, peptide conc. in assay 0.2, 2, 20 nM

29 ({CH2CO}-ARVYVDR[3Pal(6-Ph)]PYP[Bip]Y[Phe(4-COOH)][Phe(4-COOH)]SCG-NH2; thioether N-17; not fully specified) [compound 29]
aLISA BMP7 (BMP7; 10 nM BMP7, peptides of Synthesis 2, peptide 1, 10, 100 nM): ND (the inhibitory activity was less than 30% at the maximum concentration evaluated) | aLISA BMP4 (BMP4; SMAD1 phosphorylation, peptides of Synthesis 2, peptide 0.02, 0.2, 2 nM): A (showed an inhibitory activity of 50% or more in a zone to which the peptide was added to in an amount of 0.2 nM)

58 (Ac-ARVYVD[Cit][Bip]PYP[Bip]Y[Phe(4-COOH)][Phe(4-COOH)]SCG-NH2; thioether (positions not given here); not fully specified (bridges)) [compound 58]
aLISA BMP7 (BMP7; [1]): C (showed less than 50% of inhibitory activity in 10 nM-addition zone and showed 50% or more of inhibitory activity in 100 nM-addition zone) | aLISA BMP4 (BMP4; [2]): A (showed an inhibitory activity of 50% or more in a zone to which the peptide was added to in an amount of 0.2 nM)

63 (Ac-E[KCOpipzaa]VYVDR[Bip]PYP[Bip]Y[Phe(4-COOH)][Phe(4-COOH)]SCG-NH2; thioether (positions not given here); not fully specified (bridges)) [compound 63]
aLISA BMP7 (BMP7; [1]): C (showed less than 50% of inhibitory activity in 10 nM-addition zone and showed 50% or more of inhibitory activity in 100 nM-addition zone) | aLISA BMP4 (BMP4; [2]): A (showed an inhibitory activity of 50% or more in a zone to which the peptide was added to in an amount of 0.2 nM)

338 ({CH2CO}-FG[NMeF]G[Bip]GDD[Cha][Ahp(2)][NMeF]LHCG-NH2; thioether N-14) [compound 338]
aLISA BMP7 (10 nM) % inh (BMP7; [3]): D (showed less than 30% of inhibitory activity in 10 nM-addition zone and showed 30% or more of inhibitory activity in 100 nM-addition zone) | aLISA BMP4 (0.2 nM) % inh (BMP4; [4]): ND (the inhibitory activity was less than 30% at the maximum concentration evaluated)

334 (FG[NMeF]G[Bip]GND[Cha]A[NMeF]LHCG-NH2; not fully specified (N-terminus, bridges)) [compound 334]
aLISA BMP7 (10 nM) % inh (BMP7; [3]): D (showed less than 30% of inhibitory activity in 10 nM-addition zone and showed 30% or more of inhibitory activity in 100 nM-addition zone) | aLISA BMP4 (0.2 nM) % inh (BMP4; [4]): ND (the inhibitory activity was less than 30% at the maximum concentration evaluated)

281 (ERV[Phe(4-COOH)]VDR[3Pal(6-Ph)][KCOpipzaa]YV[Bip][4Pal][Phe(4-COOH)][Phe(4-COOH)]SC[βAla]) [compound 281]
aLIZA BMP7 (10 nM) % inh (BMP7; [5]): ND (the inhibitory activity was less than 30% at the maximum concentration evaluated) | aLIZA BMP4 (0.2 nM) % inh (BMP4; BMP4 0.2 nM stimulus): C (showed less than 30% of inhibitory activity in 0.2 nM-addition zone and showed 30% or more of inhibitory activity in 2 nM-addition zone)

363 (FG[NMeF]G[3Pal(6-Ph)]GDE[Cha]A[NMeF]LHCG-NH2; not fully specified (N-terminus, bridges)) [compound 363]
aLISA BMP7 (10 nM) % inh (BMP7; [3]): D (showed less than 30% of inhibitory activity in 10 nM-addition zone and showed 30% or more of inhibitory activity in 100 nM-addition zone) | aLISA BMP4 (0.2 nM) % inh (BMP4; [4]): ND (the inhibitory activity was less than 30% at the maximum concentration evaluated)

412 ([Phe(4-F)]G[NMeF]G[3Pal(6-Ph)]GDE[Cha][Aad][NMePhe(4-Me)]L[Phe(4-COOH)]C-NH2; not fully specified) [compound 412]
aLISA BMP7 (10 nM) % inh (BMP7; [6]): D (showed less than 30% of inhibitory activity in 10 nM-addition zone and showed 30% or more of inhibitory activity in 100 nM-addition zone) | aLISA BMP4 (0.2 nM) % inh (BMP4; [7]): ND (the inhibitory activity was less than 30% at the maximum concentration evaluated)

420 ([Phe(4-F)]G[NMeF]G[3Pal(6-Ph)]GDE[Cha][Aad][NMePhe(4-Me)]L[Abu]C-NH2; also: cyclic peptide, ring closure not given here) [compound 420]
aLISA BMP7 (10 nM) % inh (BMP7; [6]): D (showed less than 30% of inhibitory activity in 10 nM-addition zone and showed 30% or more of inhibitory activity in 100 nM-addition zone) | aLISA BMP4 (0.2 nM) % inh (BMP4; [7]): ND (the inhibitory activity was less than 30% at the maximum concentration evaluated)

94 ({CH2CO}-A[KCOpipzaa]VYV[KCOpipzaa]R[Bip]PYV[Bip]Y[Phe(4-COOH)][Phe(4-COOH)]SC[βAla][dE]-OH; thioether N-17; not fully specified) [compound 94]
aLISA BMP7 (BMP7; inhibition of SMAD1 phosphorylation by BMP7 stimulus, peptides of Synthesis 2, classes A-D, ND): C (showed less than 50% of inhibitory activity in 10 nM-addition zone and showed 50% or more of inhibitory activity in 100 nM-addition zone) | aLISA BMP4 (BMP4; inhibition of SMAD1 phosphorylation by BMP4 stimulus, peptides of Synthesis 2, classes A-C, ND): A (showed an inhibitory activity of 50% or more in a zone to which the peptide was added to in an amount of 0.2 nM)

362 (FG[NMeF]GFGDE[Cha]A[NMeF]LHCG-NH2; not fully specified (N-terminus, bridges)) [compound 362]
aLISA BMP7 (10 nM) % inh (BMP7; [3]): D (showed less than 30% of inhibitory activity in 10 nM-addition zone and showed 30% or more of inhibitory activity in 100 nM-addition zone) | aLISA BMP4 (0.2 nM) % inh (BMP4; [4]): ND (the inhibitory activity was less than 30% at the maximum concentration evaluated)

303 (ERV[Phe(4-COOH)]V[KCOpipzaa]R[Bph3C][KCOpipzaa]Y[Hyp][Bip]Y[Phe(4-COOH)][Phe(4-COOH)]SCG-NH2; not fully specified (N-terminus, bridges); also: cyclic peptide, ring closure not given here) [compound 303]
aLIZA BMP7 (10 nM) % inh (BMP7; BMP7 10 nM stimulus, peptide conc. in assay 10, 100, 1000 nM): E (showed less than 30% of inhibitory activity in 100 nM-addition zone and showed 30% or more of inhibitory activity in 1,000 nM-addition zone) | aLIZA BMP4 (0.2 nM) % inh (BMP4; BMP4 0.2 nM stimulus): C (showed less than 30% of inhibitory activity in 0.2 nM-addition zone and showed 30% or more of inhibitory activity in 2 nM-addition zone)

391 (FG[NMeF]G[Bip]GDD[Cha]AYLHCG-NH2; not fully specified (residue 11)) [compound 391]
aLISA BMP7 (10 nM) % inh (BMP7; BMP7 10 nM stimulus, peptide conc. in assay 10, 30, 90 nM): F (showed less than 30% of inhibitory activity in 10 nM-addition zone and showed 30% or more of inhibitory activity in 30 nM-addition zone) | aLISA BMP4 (0.2 nM) % inh (BMP4; BMP4 0.2 nM stimulus, peptide conc. in assay 2, 20, 200 nM): A (showed less than 30% of inhibitory activity in 2 nM-peptide-addition zone and showed 30% or more of inhibitory activity in 20 nM-addition zone)

134 ({CH2CO}-ERVYVD[Phe(4-guanidino)][Bip]PYV[Bip]Y[Phe(4-COOH)][Phe(4-COOH)]SCG-NH2; thioether N-17; not fully specified) [compound 134]
aLISA BMP7 (BMP7; inhibition of SMAD1 phosphorylation by BMP7 stimulus, peptides of Synthesis 1, classes E, F, ND): E (showed 50% or more of inhibitory activity in a zone to which the peptide was added in an amount of 10 nM) | aLISA BMP4 (BMP4; inhibition of SMAD1 phosphorylation by BMP4 stimulus, peptides of Synthesis 1, classes D-F, ND): E (showed less than 50% of inhibitory activity in 0.2 nM-addition zone and showed 50% or more of inhibitory activity in 2 nM-addition zone)

392 ([Phe(4-F)]G[NMeF]G[Bip]GDD[Cha]A[NMeF]LHCG-NH2; not fully specified) [compound 392]
aLISA BMP7 (10 nM) % inh (BMP7; [6]): D (showed less than 30% of inhibitory activity in 10 nM-addition zone and showed 30% or more of inhibitory activity in 100 nM-addition zone) | aLISA BMP4 (0.2 nM) % inh (BMP4; [7]): A (showed less than 30% of inhibitory activity in 2 nM-peptide-addition zone and showed 30% or more of inhibitory activity in 20 nM-addition zone)

336 (FG[NMeF]G[Bip]GDD[Cha]E[NMeF]LHCG-NH2; not fully specified (N-terminus, bridges)) [compound 336]
aLISA BMP7 (10 nM) % inh (BMP7; [3]): D (showed less than 30% of inhibitory activity in 10 nM-addition zone and showed 30% or more of inhibitory activity in 100 nM-addition zone) | aLISA BMP4 (0.2 nM) % inh (BMP4; [4]): ND (the inhibitory activity was less than 30% at the maximum concentration evaluated)

418 (FG[NMeF]G[3Pal(6-Ph)]GDE[Cha][Aad][NMeF]L[Abu]C-NH2; not fully specified) [compound 418]
aLISA BMP7 (10 nM) % inh (BMP7; [6]): D (showed less than 30% of inhibitory activity in 10 nM-addition zone and showed 30% or more of inhibitory activity in 100 nM-addition zone) | aLISA BMP4 (0.2 nM) % inh (BMP4; [7]): ND (the inhibitory activity was less than 30% at the maximum concentration evaluated)

296 (ERV[Phe(4-COOH)]V[KCOpipzaa]R[3Pal(6-Ph)][KCOpipzaa]Y[Hyp][Bph3OMe]Y[Phe(4-COOH)][Phe(4-COOH)]SCG-NH2; not fully specified (N-terminus, bridges); also: cyclic peptide, ring not given here) [compound 296]
aLIZA BMP7 (10 nM) % inh (BMP7; [5]): ND (the inhibitory activity was less than 30% at the maximum concentration evaluated) | aLIZA BMP4 (0.2 nM) % inh (BMP4; BMP4 0.2 nM stimulus): B (showed less than 30% of inhibitory activity in 0.02 nM-addition zone and showed 30% or more of inhibitory activity in 0.2 nM-addition zone)
